This is an account of results in patent publication US20170360911A1.

One assay concerns the target HLA-A*02:01 (human). Kind of assay: T2-A24 MHC class I stabilization, flow cytometry, anti-HLA-A02 BB7.2-FITC, peptide 100 ug/mL. As to conditions: remark: other sources report otherwise. On the technique in general: In flow cytometry, cells or beads pass a laser one at a time.

B1: VSV52-59 peptide (peptide)
peptide: RGYVYQGL
modifications: not checked
In the case of B1, the MFI (solvent ratio) (ratio to solvent) with HLA-A*24:02 (human) stood at 1.

B2: MAGE-1161-169 peptide (peptide)
peptide: EADPTGHSY
Consider B2, for which the MFI (solvent ratio) (ratio to solvent) in the assay with HLA-A*02:01 (human) is 1.
